From publication PMC9795466

Biological target: thrombin (human, UniProt P00734;P00734 328-363;364-622)
Test: organic electrochemical transistor

B1: DBCO-HD22 thrombin aptamer (ssDNA)
DNA: TTTTTAGTCCGTGGTAGGGCAGGTTGGGGTGACT
modifications: 5' DBCO-TEG
  Kd: 103 ± 44 nM
